Some results are limits rather than exact numbers.

This note sets out measurements from the supplement of paper PMC12455559.

This series in a line: purified protein yield per well (BCA); higher = higher soluble expression. Summed up: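 Candidate enzymes were produced in E. coli C41(DE3) grown in 2 mL autoinduction cultures containing 100 µg/mL kanamycin, first at 37 °C for 2 h and then at 18 °C for 40 h. After cell lysis, protein was captured on Ni-charged magnetic beads and freed by SUMO protease cleavage on an OT-2 robot. Purified protein yield per well was read with the Pierce Rapid Gold BCA kit. Values under 25 ug (0.1 mg/mL) fall below the detection threshold.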
Consider “STPVHHAAASYTSTAAHHHAPFAVRTTVVPKTAVTTFGGGVIYTPQDTGKPVLGAVVITPGFTDTNANEKEMAELVASQGFVAFAIDTLTTDDLPDLRATQMLAAADYLTGQSAVRSQVSKDDVGLIGYSFGGGGAMQAAQSRPSIKAAIGLMPFDFPPATDPDAMYPAYPHMTTPTLVITGQKDDVADPKDFGKPAYDSIPAGTPKQYLELTGLGHAAGQHVPVATIRTAVTAFLKRYLDGNSAYAKYICPAPKVGGPISASLSSCPKG [TEP069]”, for which the “purified protein yield per well” value came to 25.8 µg. For “TPEAPAARAAENPYERGPDPTESSIEAPRGSYSVSERSVSSLSVRGFGGGTIYYPTSTADGTFGAVAISPGFTARQSSMAWYGERLASQGFVVFTIDTNTTMDQPASRGDQLLAALDYLTDDSAVRSRIDSNRLAVMGHSMGGGGSLEAAKDRPSLKAAIPLTPWNTDKSWPEVRVPTFIVGADGDSIASVRSHAEPFYESLPSSTDRAYMELRNATHFAPNSADTEIAKYSISWLKRFVDEDTRYEQFLCPIPSSDLQIAEFRGNCPH [TEP075]”, the “purified protein yield per well” value is less than 25 µg. For “TQSGPYQVKRYREKDGLRNGPRYRGATVYYPTDARGLLASIVIVPGYISPERSIRAWGPFYASHGIVAMTIGTNRPQDAPAARRRALLDAITSLKLENHRANSPLKGRLAVTRIAVSGWSMGGGGALEAATRAPQLKAVVALCPWNPYQTFSHRVPVLFLAGQRDRLAPVSDNALRHYEKTPASTPKLLFEVRNEGHWVANTPQGGNGAIGRLALS [TEP155]”, the “purified protein yield per well” value was less than 25 µg.

For the sequence “VANPYQRGPAPTEASVTAKLGPFAIASKKVGAFSHPGIREGTVYYPTDTSQGTFGAIAVAPGFVSPEALVSWYGPRLASQGFVVMTLEITTGFDLPEARAAQLLSALDFMKKDNTIKNRIDPNRLAVMGWSMGGGGTLRAAQQSASLKAAIPLAPWDLGMDWSNVRVPTMIIGGDNDFVASPGFHAEPFYTQLADEKAYLELENAGHFTFTSDNNTIAKYAISWMKRWVDEDTRYTQFLCPPPPAPSPTIQKYRQTCPY [DP046]”, the “purified protein yield per well” value was less than 25 µg.

Consider “VASPYQRGPDPTVASIEASRGPFAIAQTTIAASSVRGFRGGTVYYPTSTAEGTFGAVAISPGYTATQSSVAWLGPRLASQGFVVVTIDTLSRYDQPASRGTQLLAALDHLTTASSVRTRIDRNRLAVMGHSMGGGGSLSAANTRPTLQAAIPLTGWHTVKNWSGVRVPTLVVGAENDSIAPVTSHSEPFYTSLPSTLDKAYLELNAAGHSAPTSSNVTVAKYSISWLKRFVDDDTRYEQFLCPAPRGTAIQEYRDTCPHS [DP083]”, for which the “purified protein yield per well” value was less than 25 µg. On to “VEIGPAPTSTLLNGDGPFAVSTDSVSSLVTGFGGGTIYYPTTSGQYAAVAVCPGFTGTSSSISWFARRLATHGFVTIAMNTNTIYDYPSSRATQLAAALRYLLNSSSSTIRARIRTADRAVAGHSMGGGGTLIASANDSTLRAGIPLTPWNTYTSFSSVRVPQMIFGADGDTIAPYASHARPFYNSLSYPEKAYALLNGATHFTPNSTDQRIGRYGVAFAKRFVDGDTRYTPFLCGAEHTAYATSSRFDTYLSTCPY [TEP032]”, for which the “purified protein yield per well” value was less than 25 µg.

With “VEIGPAPTSTSLNSDGSFAVSSASVSSSACGSGCAGGTVYYPNTAGSYGVIAVCPGFTNTSSAISWFARRMATHGFVTIAMNTNSRYDFPASRATQLRAVLNYLVNSSSSTIRSRIRSADRGVSGYSMGGGGTLLASRDDSTLKTGVPMAPYNSGTISGVNVPQMIIGGSNDSIAPVSSMARPFYNNIPSTVKKALAVLNGASHLTFTSYDERAARYGVAFAKRFADGDTRYTPFLCGAEHTAYATSSRFTEYSSNCPY [ESM020]”, the “purified protein yield per well” value is less than 25 µg.

In the case of “VENGPAPSLASIQADGPYAVSTQTVSGSGFGGGTVYSPNTAGKYAVVAVCPGFTATQSSIAAISRRLATHGFVVVTINTTSVYDFPSSRANQLLAALRTVTALATGPVAGKMDTTRQGVAGWSMGGGGAMLAAGMTPGLKGGVAFAPWSQSNNVSRSAVPMAYLAGTADTVAPAGSHASVFYNATPATTKKLLGVITGADHNFPKTASQPASYTQVAWMKRFLDGDTRYAQFLKGDTRFTTFRSTGPF [ESM107]”, the “purified protein yield per well” value is less than 25 µg.

“VENGPAPTFSSVQAEGPFAVSTQTVRGSGFGGGTVYSPNTAGKYAVVAVCPGFTATQSSIALISRRLATHGFVVVTISTNSVYDYPASRANQLLAALRTVTALTTGPVAGKMDISRQGVAGWSMGGGGAMLAAGMTPGLKAGVAFAPWSLTNNVGSSSVPMAYLAGTADTVAPASSHSTVFYNAMPATTNKLIGVIQGANHYFPGTASQPASYTQVAWMKRFLDGDTRYSQFLNGDSRFATFRSTGPF [ESM102]”: the “purified protein yield per well” value was less than 25 µg. With “VENGPAPTLAAIQKDGPYAVTAQAIKGSGFGSGTIYVPNAAGQYALVAVCPGFVSPESSITAISKRLATHGFVVVTIATNTLLDFPSSRASQILAALKAAAGTTTGAVAGKIDVSRQVASGWSMGGGGTLEAAASTPGLVAAVAYAPWNTSSTKYKTITVPSLILGGTADVIAPVAQHSQPFYNAIPATTPKMLAVIQGASHFFPNSAGEPQSYTNISWVKRFADGDTRYGTFLNTKDAAFSTVQSTGPF [ESM089]”, the “purified protein yield per well” value was less than 25 µg.

Turning to “VENGPAPTLAALKADGPYAITSQAVPGNGFGAGTVYVPTAAGKYALVAICPGFVSAQSTMTDMAKRLATHGFVVVAISTNTLLDFPPSRASQLLAALKATASLTSGPVVGKIDTSRQAVSGWSMGGGGTLEAAGSTPGLMAAVAFAPWDTSTTKMKVDKVPAAIIGGSSDVIAPVSSHSQPFYNAIPSTTPKLLAVISGASHFFPTTASEPASYTNISWMKRFADGDTRYSQFLNGNDAALSSFTSNGPF [ESM092]”, the “purified protein yield per well” value was less than 25 µg. Turning to “VENGPAPTLASVQADGPYAVSTQSVSGTGFGGGTVYSPNTAGKYAVVAVCPGFTATQSSIAAISRRLATHGFVVVTINTKSTYDFPPSRANQILAALRTVTALTTGPVAGKMDISRQGVAGWSMGGGGAMLAAGMTPGLKGGVAFAPWAQSSNVSSSAVPMSYLAGSADGVAPPSMSTSFYNATPGTTRKMLGVIRGADHNFPKTASQPASYTQVAWMKRFLDSDTRYSQFLNGDSRFSTFRSTGPF [ESM088]”, the “purified protein yield per well” value is less than 25 µg. As for “VENGPAPTVSSVRADAGSYSVSKTSYADNVTPGFGAATVYAPSNTTGQKFGVVSFAPGWTENQSAVDWIARRTASFGFVTIVFDVNNTFFDFPAARAPQLIAALNFVTGTSNQRNLADASREAVVGHSMGGGATLDAARANPSLKATVGLAPWNPGISYSDVTVPSLEIGAQNDFIAGVSNNARYFYNSLPGSTPKAYTEMKSFGHLQTNYPSAQVGAATVSWLKRYVDGDTRYAPFICGAHTGVQNSELSAYASNC [ESM168]”, the “purified protein yield per well” value is less than 25 µg.

Consider “VENGPVPTLADLKKDGPYAVTSQKVAGSGFGSGTIYSPNTAGKYALVAVCPGFVSAESSITDISRRLATHGFVVITIGTKTLLDFPSSRATQLLAALKTATTTTTGPVVGKIDTARQVVSGWSMGGGGTLEAAGITPGLKAAVAYAPWHSTTTKIKTSTVPSIIFGATGDVVAPVASHSQKFYDVLPTSTKKQLAVLQGSNHFFPNSAIEPVSYSNISWVKRFADGDTRYSQFLSVADPAWSKVQSNGPF [ESM166]”, for which the “purified protein yield per well” value was less than 25 µg. On to “VPAPPAVERGPAPTPASVTAAVGPHAVITAAVRRADVAGFGGGTLLAPADAAGGPYGVVAVAPGFREGAATLAWLGPRLASRGFVVLLVDTLDPDEFPTARAAELLAAIDWVVADSPVRDRADPARAAVLGHSMGGGAALEAALARPGLRAAIPMAPWDPAADFAGVRVPTLVLAAEDDTIAPPAEHAERFYASLTAPARAYALLPGRDHDFSNAPDDVTAGLVLSWLARFVDGDTRYTRLLCRGTLSAAVASQQDTCPAP [TEP074]”, for which the “purified protein yield per well” value is less than 25 µg. Turning to “VQIGPAPTSAALNKDGSFSVSSSSVSMLSARGFGSGTIYYPSTSGQYGVIAVCPGFTGTSSSISWFARRLASHGFVTIAMNTTTTLDQPASRATQLAAALKYVLNSSSSTVRSRIRAADRGVAGHSMGGGGTLIASQSDSTLRVGIPMTPWNLSTNFSSVKVPQMIFGADGDTIAPYASHARPFYNSLSKAPKAYGLLKSATHFTPNATDQRIGRYGVAFAKRFVDGDTRYSPFLCGSEHNSYATSSKFATYLSNCPY [ESM148]”, the “purified protein yield per well” value is less than 25 µg. Consider “VQIGPAPTSAALNKDGTFSVSSTSVSSLSARGFGGGTIYYPTTAGQYGVIAVCPGYTGTSSSISWFARRLATHGFVTIAMNTTTTLDQPDSRATQLAAALKCVLSNSTVKSRIRSTDRGVAGHSMGGGGTLIASQSDSSLRVGIPMTPWNLSTNFSAVKVPQMIFGADGDTIAPYASHARPFYNSINKTQKAYGLLKSATHFTPNSTDQRIGRYGVAFAKRFVDGDTRYSAFLCGAEHSSYATSSKFATYLSNCPY [ESM154]”, for which the “purified protein yield per well” value was less than 25 µg.

For the sequence “VQIGPNPTKASLEASSGPFTVGKFTISRPSGYAAGTVYYPTNAGAKVGVISIVPGFVSYQSSVAWWGPRLASHGFVVVTIDTNTTVDQPDSRSRQQLAALDQVVALGNNSSSPLYNKIDGTRTGVMGWSMGGGGSLISAKNRPSIKAAAPQAPWASLTSFSSLTVPTLIFSCQSDIVAPVATHANSFYNEMSRNPKQLLEKTLGDHFCMNSANPTVGLKGVAWMKRFIDGDTRYTTFACSNPNAFGFSDFRTARCS [ESM111]”, the “purified protein yield per well” value is less than 25 µg.

As for “VQNGPAPTLAALKADGPYAITSQAVAGNGFGAGTIYTPTAAGKYALVAICPGFVSAQSTMAGLAKRLATHGFVVVAISTNTLLDFPSSRATQLLAALKTVSALNTGAVAGKVDTTRQAVSGWSMGGGGTLEAAGATPGLVAAVAFAPWDTSTTKMKVNKVPAAIIGGSSDAVAPVASHSQKFYD [ESM063]”, the “purified protein yield per well” value is less than 25 µg. The same measure for “VQNGPNPTLDAIKADGPYAITSQAVAGNGFGAGTIYMPTAAGKYALVAICPGFVSAQSTMAGMAKRLATHGFVVVAISTNTLFDFPSSRATQLLAALKTVSALNTGAVVGKIDTTRQAVSGWSMGGGGTLEAAGATPGLVAAVAFAPWDTSTTKMKVNKVPAAIIGGSSDVIAPVASHSQKFYDAIPATTPKLLAVINGADHFFPTKASEPASYTNISWMKRFADGDTRYSSFLNGNDAALSSFSSNGPF [ESM056]”: less than 25 µg; for “VQNGPTPTLADLKKDGPYAVTSQTVAGNGFGGGTVYSPNTAGKYALVAVCPGFVSAQSSMTEMGRRLATHGFVVVTIATNTPFDFPSSRATQLLAALKTVAALNTGAVAGKVDTSRQVVSGWSMGGGGTLEAAGITPGLVAGVAFAPWHTSTAKMTSLTVPVAIIGGTSDTIAPVSGHSQKFYDAIPKTTKKMLGVITGADHFFPTKASEPTSYSNISWVKRFADGDTRYSPFLTGQDAAWASFVSTGPF [ESM118]”: less than 25 µg. Turning to “VQSESPGKKYTSGPYGYTTTSLTGYSAGATIYIPRTGTPPYSGIVFMQPYTGTQAMDAAWGPFFASHGIIYVNCDSMTTLDTVDSRATQQMNAVSILKSSSKVKGKLDTSRVGVMGWSMGGGASWINSSKSGVKTAMTLAGHNLTAVSTASKGYSTRCPTAIFSGSLDTTYLGGLGQSEGVYAAIPRSVSKLHYKVATAGHMVWGGPTTASVNVGAIGLAFQKTYLDGDTRWKAYITRPADAAIWTTNLR [TEP005]”, the “purified protein yield per well” value is less than 25 µg.
